Experimental data taken from patent US7018812 (DUKE UNIVERSITY, dated 2006).
Bridges are numbered along the chain shown (N, C = ends). Where no end group is shown, it is not given here.

T1: V2R-β2AR chimera (human)
T1 construct: Whole receptor on HEK-293 cells; also called V2-β2AR; V2R-p2AR
T1 chain: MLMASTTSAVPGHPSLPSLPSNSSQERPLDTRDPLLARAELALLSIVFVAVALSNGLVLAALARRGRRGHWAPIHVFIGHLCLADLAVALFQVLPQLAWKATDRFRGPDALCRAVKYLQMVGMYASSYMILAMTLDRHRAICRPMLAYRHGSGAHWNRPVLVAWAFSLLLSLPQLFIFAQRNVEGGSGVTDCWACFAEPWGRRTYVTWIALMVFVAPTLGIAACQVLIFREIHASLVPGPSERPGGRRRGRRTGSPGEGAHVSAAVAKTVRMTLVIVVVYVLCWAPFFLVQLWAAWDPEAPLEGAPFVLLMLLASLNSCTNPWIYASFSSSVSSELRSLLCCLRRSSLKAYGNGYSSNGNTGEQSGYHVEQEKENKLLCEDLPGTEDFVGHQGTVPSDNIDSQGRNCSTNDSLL

B1: arginine vasopressin (peptide, UniProt P01185 20-28, looked up)
peptide: CYFQNCPRG-NH2
modifications: disulfide 1-6 (inferred); ends not checked; also: tritium label ([3H]AVP), place not given here
notes: mature; only the hormone peptide stood in the assay; also called AVP; [3H]AVP

Experiments:
[1] = target: wild-type V2R receptor (vasopressin V2 receptor), HA-tagged (human) (UniProt P30518); test: cell-based or functional assay
V2R-β2AR chimera [2] = target: T1, V2R-β2AR chimera; test: cell-based or functional assay
[3] = target: β2AR-V2R chimera (Homo sapiens (Human)) (UniProt P07550); test: cell-based or functional assay
[4] = target: wild-type β2AR receptor (β2-adrenergic receptor), HA-tagged (Homo sapiens (Human)) (UniProt P07550); test: cell-based or functional assay
V2R-β2AR chimera [5] = target: T1, V2R-β2AR chimera; test: [3H]AVP binding to membrane proteins of transfected HEK-293 cells; affinity not given
Experimental: Membrane proteins (10 μg) from transfected HEK-293 cells expressing the V2R and V2R-β_2AR chimera were incubated in PBS containing 2% BSA at room temperature with increasing concentrations of [^3H] […] Binding was terminated by rapid filtration and consecutive washes with ice-cold wash buffer ([…], 50 mM Tris-HCl, pH=7.2).

[6] = scale: % of Vmax measured under Naive conditions

Molecule	impairment of recovery of Vmax of adenylyl cyclase activity one hour after agonist removal (resensitization) [1] [%]	internalized receptor recycled back to the plasma membrane 60 min after agonist removal (flow cytometry) [1] [%]	reduction in receptor phosphorylation 60 min after agonist removal (32P, immunoprecipitation) [1] [% decrease]	internalized receptor recycled back to the plasma membrane 60 min after agonist removal (flow cytometry) (V2R-β2AR chimera [2]) [%]	reduction in receptor phosphorylation 60 min after agonist removal (32P, immunoprecipitation) (V2R-β2AR chimera [2]) [% reduction]	recovery of Vmax of adenylyl cyclase activity one hour after agonist removal (resensitization) (V2R-β2AR chimera [2]; [6])	change in receptor phosphorylation 60 min after agonist removal (32P, immunoprecipitation) [3] [% increase]	impairment of recovery of Vmax of adenylyl cyclase activity one hour after agonist removal (resensitization) [3] [%]	internalized receptor recycled back to the plasma membrane 60 min after agonist removal (flow cytometry) [3] [%]	internalized receptor recycled back to the plasma membrane 60 min after agonist removal (flow cytometry) [4] [%]	reduction in receptor phosphorylation 60 min after agonist removal (32P, immunoprecipitation) [4] [% reduction]	recovery of Vmax of adenylyl cyclase activity one hour after agonist removal (resensitization) [4, 6]	binding result (V2R-β2AR chimera [5])
β-arrestin	54	23	3	89	67	102	12	66	11	65	48	100	–
B1	–	–	–	–	–	–	–	–	–	–	–	–	binds
